Experiments:
[1] = target: Six4-HA (HA-tagged Six4, Six4-3xHA) (Drosophila); assay: co-IP; Six4-HA, Myc-Erm and Flag-PntP1 all three co-expressed in S2 cells; IP with anti-HA or anti-Flag antibody; 150mM or 1200mM NaCl; % co-IP quantified from band intensities, normalized by the IPed protein, n = 3 (S7F Fig)
[2] = target: Six4-HA (HA-tagged Six4, Six4-3xHA) (Drosophila); assay: co-IP; two of the three tagged proteins co-expressed in S2 cells; graded concentrations (150mM to 1200mM) of NaCl in the 1% NP-40 lysis buffer (S7C-E Fig; lanes with two proteins of S7F Fig, % co-IP quantified from band intensities, n = 3)

## Myc-Erm (Myc-tagged Earmuff) (from UniProt Q9VQ56 1-611) (natural protein)
[1]
  % co-IPed Myc-Erm with the anti-HA antibody (1200mM NaCl, Flag-PntP1 co-expressed): 13.6%
[2]
  % co-IPed Myc-Erm with the anti-HA antibody (1200mM NaCl, without Flag-PntP1): 6.7%
